Here are results for two substances from paper PMC3046150.

Assay [1] concerns the target human TrkA on BALB/C 3T3-hTrkA cells (human) (UniProt P04629).
For assay [2], the target named is p75 neurotrophin receptor (p75NTR), endogenous on rat cells (rat (endogenous in rat oligodendrocyte progenitor cells)) (UniProt P07174).
Sequence of UniProt P07174 (P07174 30-425): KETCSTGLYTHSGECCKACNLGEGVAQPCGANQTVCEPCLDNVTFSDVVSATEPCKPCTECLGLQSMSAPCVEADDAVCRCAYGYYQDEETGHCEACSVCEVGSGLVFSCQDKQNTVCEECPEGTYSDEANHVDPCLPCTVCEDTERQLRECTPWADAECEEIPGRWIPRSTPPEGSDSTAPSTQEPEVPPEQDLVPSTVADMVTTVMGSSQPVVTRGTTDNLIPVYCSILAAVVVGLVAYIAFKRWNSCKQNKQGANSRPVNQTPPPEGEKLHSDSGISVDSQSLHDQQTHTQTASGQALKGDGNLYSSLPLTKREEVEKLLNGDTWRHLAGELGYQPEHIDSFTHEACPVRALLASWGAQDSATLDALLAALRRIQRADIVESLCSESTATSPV

Sequence of UniProt P04629 (P04629 33-796): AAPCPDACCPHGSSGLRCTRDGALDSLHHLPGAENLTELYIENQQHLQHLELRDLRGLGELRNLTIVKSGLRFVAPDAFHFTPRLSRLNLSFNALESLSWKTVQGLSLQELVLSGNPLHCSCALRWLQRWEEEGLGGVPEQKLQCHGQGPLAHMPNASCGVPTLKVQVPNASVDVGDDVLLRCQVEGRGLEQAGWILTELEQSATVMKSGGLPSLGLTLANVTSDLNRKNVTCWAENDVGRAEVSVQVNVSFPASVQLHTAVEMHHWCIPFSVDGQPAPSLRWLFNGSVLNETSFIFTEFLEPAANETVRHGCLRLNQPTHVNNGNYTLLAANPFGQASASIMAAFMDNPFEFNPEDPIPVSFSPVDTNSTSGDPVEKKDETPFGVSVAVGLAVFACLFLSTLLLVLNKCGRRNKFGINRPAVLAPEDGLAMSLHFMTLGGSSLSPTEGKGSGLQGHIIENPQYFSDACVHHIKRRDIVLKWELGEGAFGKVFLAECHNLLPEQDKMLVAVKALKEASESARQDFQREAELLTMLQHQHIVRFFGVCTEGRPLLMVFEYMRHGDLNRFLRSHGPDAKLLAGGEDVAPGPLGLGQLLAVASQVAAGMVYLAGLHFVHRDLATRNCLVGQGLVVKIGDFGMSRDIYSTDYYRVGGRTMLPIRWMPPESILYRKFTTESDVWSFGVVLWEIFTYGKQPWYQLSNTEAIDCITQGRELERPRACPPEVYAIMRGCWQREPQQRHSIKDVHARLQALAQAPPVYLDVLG

The substance “hNGFR100E, mature human NGF with the substitution R100E (from UniProt P01138 122-241) (ligand)” came in with a phosphorylation of TrkA residue Tyr490 in BALB/C 3T3-hTrkA cells, 100 ng/ml, Western blot with site-specific anti-phosphoTrkA antibody (% reduction against hNGF) in assay [1] of 70. The phosphorylation of c-jun at Ser63 in hippocampal cells (p75NTR dependent activation of the jnk kinase), 100 ng/ml (% reduction against hNGF) in assay [2] was found to be 30. The substance “hNGFR100W, mature human NGF with the HSAN V substitution R100W (from UniProt P01138 122-241) (ligand)” gave a phosphorylation of TrkA residue Tyr490 in BALB/C 3T3-hTrkA cells, 100 ng/ml, Western blot with site-specific anti-phosphoTrkA antibody (% reduction against hNGF) in assay [1] of 70.
